Results taken from patent US10961303 (UNIVERSITEIT TWENTE, dated 2021).

T1: BMP-6 (R&D systems cat. #507-BP/CF) (human, UniProt P22004 382-513, limits assumed)
T1 construct: Bought protein; also called recombinant human BMP-6
T1 sequence (looked up): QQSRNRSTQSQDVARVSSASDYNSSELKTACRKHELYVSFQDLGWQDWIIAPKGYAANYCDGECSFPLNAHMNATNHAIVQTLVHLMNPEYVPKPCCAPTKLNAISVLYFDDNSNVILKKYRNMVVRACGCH

T2: BMP-7 (R&D system cat. #354-BP/CF) (UniProt P18075 293-431)
T2 construct: Bought protein
T2 sequence (looked up): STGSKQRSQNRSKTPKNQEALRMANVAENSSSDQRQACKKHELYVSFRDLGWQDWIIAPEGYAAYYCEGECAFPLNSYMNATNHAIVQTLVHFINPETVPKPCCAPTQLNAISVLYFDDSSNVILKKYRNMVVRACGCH


What was measured:
[1] = biological target: T1, BMP-6 (R&D systems cat. #507-BP/CF); test: solid phase ELISA, wells coated with ~200 ng BMP6
Protocol: (§1) The indicated amounts of VHHs were incubated with wells coated with ~200 ng BMP6, 200 ng BMP7 or no BMPs (PBS). After several washes, bound VHHs were detected with a rabbit anti-VHH serum and a Donkey anti-rabbit antibody coupled to a peroxidase. The amount of converted OPD (Absorbance at 490 nm; A 490 nm) is proportional to the amount of bound VHHs.
(§2) MaxiSorb plate wells were coated overnight at 4° C., with the antigens in PBS. After blocking of the wells with 4% marvel in PBS, they were incubated with VHH or VHH-fused to M13 phages in the presence of 2% Marvel. The wells were washed with PBS-tween, and bound phages were detected by incubation with a mouse Monoclonal antibody against M13 phage coupled to HRP. Bound VHH were detected by incubation with a rabbit anti-VHH polyclonal serum and a goat anti-rabbit coupled to HRP. The amount of HRP was developed by the addition of OPD. The reactions were stopped by the addition of H_2SO_4 and measured at 490 nm.

[2] = biological target: T1, BMP-6 (R&D systems cat. #507-BP/CF); test: SPR, VHH coupled to CM5 chip, BMP injected
[3] = biological target: T2, BMP-7 (R&D system cat. #354-BP/CF); test: SPR, VHH coupled to CM5 chip, BMP injected
[4] = biological target: T2, BMP-7 (R&D system cat. #354-BP/CF); test: solid phase ELISA, wells coated with 200 ng BMP7
Protocol: as §1, §2

[5] = biological target: T1, BMP-6 (R&D systems cat. #507-BP/CF); test: solid phase ELISA, wells coated with 200 ng BMP
Protocol: as §1, §2

[6] = biological target: T2, BMP-7 (R&D system cat. #354-BP/CF); test: binding test to cognate antigen, method not described
[7] = biological target: T1, BMP-6 (R&D systems cat. #507-BP/CF); test: ELISA, 100 ng BMP6 coated, serial dilutions, read at 490 nm
From the text: FIG. 7A-7B show the binding properties of the fusion proteins according to the invention which bind to a growth factor or growth factor inhibitor and to a biomaterial. Fusion proteins according to the invention are composed of the VHH according to the invention binding to a growth factor (indicated in the figure as "VHH-6-F2") and a VHH binding to a biomaterial (indicated in the figure as "MA"). […] The fusion proteins (indicated in the figure as "F") were constructed by genetic fusion of a VHH binding to BMP6 and a VHH binding to hydroxyapatite. To achieve binding to the growth factor BMP6 (FIG. 7A), 100 ng of BMP6 was coated into wells of a maxisorb plate. Serial dilutions of the VHH which binds to BMP6 (VHH-6-F2) and fusion proteins according to the invention (F) were added to the wells. Bound VHHs (VHH-6-F2) and fusion proteins (F) were detected with labelled polyclonal antibodies.

| binding result [1] | binding result [4] | Binder | further results |
| --- | --- | --- | --- |
| binds |  | VHH-6-D6 (VHH, Llama VHH selected against BMP6, made in E. coli periplasm; not shown: C-terminal Myc and His tags) VHH: EVQLVESGGGLVQAGGSLRLSCAASGRTFSSYGMGWFRQAPGKERDFVAAVSKSGGSTYYTASVKGRFTVSRDNAKNTVYLQMNSLKPEDTAVYYCAAGRWESGSRPGSTWYGERTYDYWGQGTQVTVSS |  |
| binds |  | VHH-6-C1 (VHH, Llama VHH selected against BMP6; not shown: C-terminal Myc and His tags) VHH: EVQLVESGGGLVQAGGSLRLSCAASGRTFSSYGMGWFRQAPGKERDFVAAVSRSGGNTYYTASVKGRFTISRDNAKNTMYLQMNSLKPEDTAVYYCAAGRWESGSRLGSTWYGERTYDYWGQGTQVTVSS |  |
|  |  | VHH-6-H1 (VHH, Llama VHH selected against BMP6; In SPR coupled to a CM5 chip by NHS chemistry; also called monohead VHH-6-H1; not shown: C-terminal Myc and His tags) VHH: EVQLVESGGGLVQAGGSLRLSCAASGSIFSIVSMGWYRQVPGKQRELVAAITSAGSTNYGDSAKGRFTISRDNAKNTVYLQMNSLKPEDTAVYYCNSYGLGYPGDYGIDYWGKGTLVTVSS | binding result [2]: binds; binding result [3]: binds |
|  | binds | VHH-7-B8 (VHH, Llama VHH selected against BMP7; not shown: C-terminal Myc and His tags) VHH: EVQLVESGGGLVRAGGSLRLSCAASGRTFSGYVAGWFRQAPGKEREFVAAISWSGITYYGDSVKGRFTIARDNSKNGVYLQMNSLKPEDTAVYYCGAGKGYYKDYRGYDYWGQGTQVTVSS |  |
|  | binds | VHH-7-F11 (VHH, Llama VHH selected against BMP7; In SPR coupled to a CM5 chip by NHS chemistry; not shown: C-terminal Myc and His tags) VHH: EVQLVESGGGLVQAGGSLRLSCAASGRTFSGYVAGWFRQAPGKEREFVAASSWSGITYYGDSVKGRFTISRDNAKNTVYLQMNSLKPEDTAVYYCGAGKGYYKDYRGYDYWGQGTQVTVSS | binding result [5]: no binding |
|  |  | Glyco-VHH (glycosylated VHH-7-G7 with an N-glycosylation site introduced in loop5, made in yeast) (VHH, N-linked glycosyl group at the glycosylation site introduced in loop5 (position not given), Expressed in S. cerevisiae; also called mutated VHH) VHH: EVQLVESGGGLVQAGGSLRLSCAASGFTFDDYIIGWFRQAPGKEREGISCISSSDGSTYYADSVTGRFTISSDNANNTVYLQMNSLKPEDTAVYYCAAHAKWPYGTYSFRRCRRASFDSWGQGTQVTVSS | binding result [6]: binds |
|  |  | VHH-6-F2 (VHH, Llama VHH selected against BMP6; not shown: C-terminal Myc and His tags) VHH: EVQLVESGGGFVQAGGSLRLSCAASGSIFSINAMGWYRQAPGKQRELVAAITSGGSTNYADSVKGRFTISRDNAKNTLYLQMNSLKPEDTAVYYCSAVTILLTSGGWGSGNDYWGQGTQVTVSS | binding result [7]: binds |
| binds | binds | VHH-6-C2 (VHH, Llama VHH selected against BMP6, cross-reactive with BMP7; not shown: C-terminal Myc and His tags) VHH: EVQLVESGGGLVQVGGSLRLSCAASGRTSSMYSMGWFRQAPGKEREFVAAIGWRFGEKYYTNSVKGRFTISRDGAENTNTVYLQMNSLKPDDTAVYYCAADPDDASQYYSDWMKGYGMDYWGKGTLVTVSS |  |
